Source: PMC11796359, “Identification and characterization of the functional tetrameric UDP-glucose pyrophosphorylase from Klebsiella pneumoniae” (mBio, 2024)
Changes are numbered by the printed parent chain. In names and notes the source's numbering stands.

B1: KpUGP E69A (enzyme)
chain: MAALNSKVRKAVIPVAGLGTRMLPATKAIPKEMLPLVDKPLIQYVVNECIAAGITEIVLVTHSSKNSIANHFDTSFELEAMLEKRVKRQLLEEVQSICPPHVTIMQVRQGLAKGLGHAVLCAHPVVGDEPVAVILPDVILDEYESDLSRDNLAEMISRFDETGASQIMVEPVEDVTAYGVVDCKGESLKPGESVPMVGVVEKPKADVAPSNLAVVGRYVLSADIWPLLAKTPPGAGDEIQLTDAIDMLIEKETVEAYHMKGKSHDCGNKLGYMQAFVEYGIRHKTLGDDFKAWLETAVAK
notes: UDP-glucose pyrophosphorylase (galU gene product) of K. pneumoniae DSM 30104; mutant of Strep-KpUGP; tag as in m1; no cleavage described
B2: KpUGP D38A (enzyme)
chain: B1 chain with D38A, A69E
notes: as for B1
B3: KpUGP K10R (enzyme)
chain: B1 chain with K10R, A69E
notes: as for B1
B4: KpUGP E77Q (enzyme)
chain: B1 chain with A69E, E77Q
notes: as for B1
B5: KpUGP F276A (enzyme)
chain: B1 chain with A69E, F276A
notes: as for B1
B6: KpUGP E238Q (enzyme)
chain: B1 chain with A69E, E238Q
notes: as for B1
B7: KpUGP E69D (enzyme)
chain: B1 chain with A69D
notes: as for B1
B8: KpUGP E238A (enzyme)
chain: B1 chain with A69E, E238A
notes: as for B1
B9: KpUGP F276H (enzyme)
chain: B1 chain with A69E, F276H
notes: as for B1
B10: KpUGP E77A (enzyme)
chain: B1 chain with A69E, E77A
notes: as for B1
B11: KpUGP D38N (enzyme)
chain: B1 chain with D38N, A69E
notes: as for B1
B12: Klebsiella pneumoniae UDP-glucose pyrophosphorylase (galU gene product), wild type (enzyme, UniProt A6TAK9 1-300, looked up)
chain: B1 chain with A69E
notes: UDP-glucose pyrophosphorylase (galU gene product) of K. pneumoniae subsp. pneumoniae type strain DSM 30104 (ATCC 13883, NCTC 9633), cloned from genomic DNA; UniProt entry printed for the AlphaFold query; 34.6 kDa with tag; no cleavage of the tag is described; Also made from pETDuet-1 with the same oligomeric state; also called KpUGP; KpUGP wt; not shown: Strep-tagII, N-terminal, kept
B13: KpUGP K65R (enzyme)
chain: B1 chain with K65R, A69E
notes: as for B1
B14: KpUGP R108K (enzyme)
chain: B1 chain with A69E, R108K
notes: UDP-glucose pyrophosphorylase (galU gene product) of K. pneumoniae DSM 30104; mutant of Strep-KpUGP; tag as in m1; no cleavage described; also called R108R (as printed once in the text)
B15: KpUGP K10A (enzyme)
chain: B1 chain with K10A, A69E
notes: as for B1
B16: KpUGP K27Q (enzyme)
chain: B1 chain with K27Q, A69E
notes: UDP-glucose pyrophosphorylase (galU gene product) of K. pneumoniae DSM 30104; mutant of Strep-KpUGP; tag as in m1; no cleavage described; eluted predominantly as dimers
B17: KpUGP D73N (enzyme)
chain: B1 chain with A69E, D73N
notes: as for B1
B18: KpUGP D73A (enzyme)
chain: B1 chain with A69E, D73A
notes: UDP-glucose pyrophosphorylase (galU gene product) of K. pneumoniae DSM 30104; mutant of Strep-KpUGP; tag as in m1; no cleavage described; dissociates progressively during storage on ice
B19: KpUGP R108A (enzyme)
chain: B1 chain with A69E, R108A
notes: as for B1
B20: KpUGP K27A (enzyme)
chain: B1 chain with K27A, A69E
notes: as for B1
B21: KpUGP K65A (enzyme)
chain: B1 chain with K65A, A69E
notes: as for B1
B22: KpUGP E32A (enzyme)
chain: B1 chain with E32A, A69E
notes: UDP-glucose pyrophosphorylase (galU gene product) of K. pneumoniae DSM 30104; active site mutant of Strep-KpUGP; tag as in m1; the discussion speaks only of the mutant of E32; also called E32 mutant
B23: Klebsiella pneumoniae GalF (galF gene product), wild type (natural protein, UniProt Q48447 1-298, looked up)
chain: MNMANLKAVIPVAGLGMHMLPATKAIPKEMLPIVDKPMIQYIVDEIVAAGIKEIVLVTHSSKNAVENHFDTSYELEALLEQRVKRQLLAEVQAICPPGVTIMNVRQAQPLGLGHSILCARPVVGDNPFVVVLPDIILDGGTADPLRYNLAAMIARFNETGRSQVLAKRMPGDLSEYSVIQTKEPMVAEGQVARIVEFIEKPDEPQTLDSDLMAVGRYVLSADIWAELERTEPGAWGRIQLTDAIAELAKKQSVDAMLMTGESYDCGKKMGYMQAFVTYGMRNLKEGAKFRESIKKLLA
notes: GalF (galF gene product) of K. pneumoniae subsp. pneumoniae type strain DSM 30104 (ATCC 13883, NCTC 9633), cloned from genomic DNA into MCS1 of pETDuet-1; UniProt entry printed for the AlphaFold query; 34.3 kDa with tag; no cleavage of the tag is described; also called KpGalF; KpGalF wt
B24: KpGalF M17T/H18R/S115A/S177G/R237E (natural protein)
chain: B23 chain with M17T, H18R, S115A, S177G, R237E
notes: GalF (galF gene product) of K. pneumoniae DSM 30104; mutant of His-KpGalF; also called KpGalF quintuple mutant; quintuple revertant mutant
B25: KpUGP E238R (enzyme)
chain: B1 chain with A69E, E238R
notes: UDP-glucose pyrophosphorylase (galU gene product) of K. pneumoniae DSM 30104; mutant of Strep-KpUGP that mimics R237 of KpGalF; tag as in m1; no cleavage described

Biological target: the molecule itself
Test: native gel or EMSA; blue native PAGE, 4.5 µg of each protein on a uniform 12% native gel, followed by in-gel activity staining
B1 was tested, and the “stoichiometry N” value was 4. For B2, the “stoichiometry N” value was 4. With B3 the “stoichiometry N” value was 4. With B4 the “stoichiometry N” value was 4. With B5 the “stoichiometry N” value was 4. In the case of B6, the “stoichiometry N” value is reported as 4. For B7, the “stoichiometry N” value was 4. B8 was tested, and the “stoichiometry N” value was 4. For B9, the “stoichiometry N” value was 4. With B10 the “stoichiometry N” value was 4. In the case of B11, the “stoichiometry N” value is reported as 4.

Biological target: the molecule itself
Test: SEC; Superose 6 Increase 10/300 GL; 50 mM Tris-HCl (pH 8.0), 300 mM NaCl, 10 mM MgCl2; oligomeric state calculated from elution volumes of proteins of known size
In the case of B12, the “stoichiometry N” value is reported as 4.5. With B1 the “stoichiometry N” value was 4.4. For B2, the “stoichiometry N” value was 4.1. In the case of B13, the “stoichiometry N” value is reported as 2.4. For B14, the “stoichiometry N” value was 2.4. B3 was tested, and the “stoichiometry N” value was 4.5. For B15, the “stoichiometry N” value was 3.1. With B16 the “stoichiometry N” value was 2.2. In the case of B17, the “stoichiometry N” value is reported as 2.4. For B18, the “stoichiometry N” value was 2.7. In the case of B4, the “stoichiometry N” value is reported as 4.6. For B19, the “stoichiometry N” value was 2.2. With B20 the “stoichiometry N” value was 2.1. In the case of B21, the “stoichiometry N” value is reported as 2. In the case of B5, the “stoichiometry N” value is reported as 4.6. In the case of B6, the “stoichiometry N” value is reported as 4.4. In the case of B7, the “stoichiometry N” value is reported as 4.6. B8 was tested, and the “stoichiometry N” value was 4.4. With B9 the “stoichiometry N” value was 4.5. B10 was tested, and the “stoichiometry N” value was 4.5. For B11, the “stoichiometry N” value was 4.2.

Biological target: the molecule itself
Test: SEC; Superdex 200 10/300 GL (KpUGP active site mutants); 50 mM Tris-HCl (pH 8.0), 300 mM NaCl, 10 mM MgCl2
B22 was tested, and the “stoichiometry N” value was 2.

Biological target: the molecule itself
Test: SEC; Superose 6 Increase 10/300 GL; 50 mM Tris-HCl (pH 8.0), 300 mM NaCl, 10 mM MgCl2; oligomeric state calculated from elution volumes of proteins of known size
Remark: another data set of the same source
B23 was tested, and the “stoichiometry N” value was 1.9. For B24, the “stoichiometry N” value was 1.7. With B25 the “stoichiometry N” value was 3.1.

Biological target: the molecule itself
Test: not stated; data not shown; KpUGP in HEPES-NaOH (pH 8.0) buffer
For B12, the “stoichiometry N” value was 4.
